B1: Aspartoacylase (Homo sapiens), P45381 (parent)
chain: MTSCHIAEEHIQKVAIFGGTHGNELTGVFLVKHWLENGAEIQRTGLEVKPFITNPRAVKKCTRYIDCDLNRIFDLENLGKKMSEDLPYEVRRAQEINHLFGPKDSEDSYDIIFDLHNTTSNMGCTLILEDSRNNFLIQMFHYIKTSLAPLPCYVYLIEHPSLKYATTRSIAKYPVGIEVGPQPQGVLRADILDQMRKMIKHALDFIHHFNEGKEFPPCAIEVYKIIEKVDYPRDENGEIAAIIHPNLQDQDWKPLHPGDPMFLTLDGKTIPLGGDCTVYPVFVNEAAYYEKKEAFAKTTKLTLNAKSIRCCLH
partner: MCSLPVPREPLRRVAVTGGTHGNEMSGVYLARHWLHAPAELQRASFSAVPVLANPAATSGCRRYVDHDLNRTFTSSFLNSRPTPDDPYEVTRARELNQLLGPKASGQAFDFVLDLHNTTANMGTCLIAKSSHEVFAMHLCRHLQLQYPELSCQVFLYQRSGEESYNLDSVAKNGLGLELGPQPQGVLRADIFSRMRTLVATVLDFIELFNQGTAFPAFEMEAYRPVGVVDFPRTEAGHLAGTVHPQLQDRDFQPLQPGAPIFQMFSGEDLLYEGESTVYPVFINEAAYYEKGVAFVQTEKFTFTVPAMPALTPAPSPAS
B2: EF-hand domain-containing protein 1 (Homo sapiens), Q5JVL4 (parent)
chain: MVSNPVHGLPFLPGTSFKDSTKTAFHRSQTLSYRNGYAIVRRPTVGIGGDRLQFNQLSQAELDELASKAPVLTYGQPKQAPPADFIPAHVAFDKKVLKFDAYFQEDVPMSTEEQYRIRQVNIYYYLEDDSMSVIEPVVENSGILQGKLIKRQRLAKNDRGDHYHWKDLNRGINITIYGKTFRVVDCDQFTQVFLESQGIELNPPEKMALDPYTELRKQPLRKYVTPSDFDQLKQFLTFDKQVLRFYAIWDDTDSMYGECRTYIIHYYLMDDTVEIREVHERNDGRDPFPLLMNRQRVPKVLVENAKNFPQCVLEISDQEVLEWYTAKDFIVGKSLTILGRTFFIYDCDPFTRRYYKEKFGITDLPRIDVSKREPPPVKQELPPYNGFGLVEDSAQNCFALIPKAPKKDVIKMLVNDNKVLRYLAVLESPIPEDKDRRFVFSYFLATDMISIFEPPVRNSGIIGGKYLGRTKVVKPYSTVDNPVYYGPSDFFIGAVIEVFGHRFIILDTDEYVLKYMESNAAQYSPEALASIQNHVRKREAPAPEAESKQTEKDPGVQELEALIDTIQKQLKDHSCKDNIREAFQIYDKEASGYVDRDMFFKICESLNVPVDDSLVKELIRMCSHGEGKINYYNFVRAFSN
B3: Adenosylhomocysteinase (Homo sapiens), P23526 (parent)
chain: MSDKLPYKVADIGLAAWGRKALDIAENEMPGLMRMRERYSASKPLKGARIAGCLHMTVETAVLIETLVTLGAEVQWSSCNIFSTQDHAAAAIAKAGIPVYAWKGETDEEYLWCIEQTLYFKDGPLNMILDDGGDLTNLIHTKYPQLLPGIRGISEETTTGVHNLYKMMANGILKVPAINVNDSVTKSKFDNLYGCRESLIDGIKRATDVMIAGKVAVVAGYGDVGKGCAQALRGFGARVIITEIDPINALQAAMEGYEVTTMDEACQEGNIFVTTTGCIDIILGRHFEQMKDDAIVCNIGHFDVEIDVKWLNENAVEKVNIKPQVDRYRLKNGRRIILLAEGRLVNLGCAMGHPSFVMSNSFTNQVMAQIELWTHPDKYPVGVHFLPKKLDEAVAEAHLGKLNVKLTKLTEKQAQYLGMSCDGPFKPDHYRY
B4: E3 ubiquitin-protein ligase TRIM32 (Homo sapiens), Q13049 (parent)
chain: MAAAAASHLNLDALREVLECPICMESFTEEQLRPKLLHCGHTICRQCLEKLLASSINGVRCPFCSKITRITSLTQLTDNLTVLKIIDTAGLSEAVGLLMCRSCGRRLPRQFCRSCGLVLCEPCREADHQPPGHCTLPVKEAAEERRRDFGEKLTRLRELMGELQRRKAALEGVSKDLQARYKAVLQEYGHEERRVQDELARSRKFFTGSLAEVEKSNSQVVEEQSYLLNIAEVQAVSRCDYFLAKIKQADVALLEETADEEEPELTASLPRELTLQDVELLKVGHVGPLQIGQAVKKPRTVNVEDSWAMEATASAASTSVTFREMDMSPEEVVASPRASPAKQRGPEAASNIQQCLFLKKMGAKGSTPGMFNLPVSLYVTSQGEVLVADRGNYRIQVFTRKGFLKEIRRSPSGIDSFVLSFLGADLPNLTPLSVAMNCQGLIGVTDSYDNSLKVYTLDGHCVACHRSQLSKPWGITALPSGQFVVTDVEGGKLWCFTVDRGSGVVKYSCLCSAVRPKFVTCDAEGTVYFTQGLGLNLENRQNEHHLEGGFSIGSVGPDGQLGRQISHFFSENEDFRCIAGMCVDARGDLIVADSSRKEILHFPKGGGYSVLIREGLTCPVGIALTPKGQLLVLDCWDHCIKIYSYHLRRYSTP
B5: Aspartoacylase (Homo sapiens), P45381 (parent)
chain: B1 chain
B6: Fructose-1,6-bisphosphatase 1 (Homo sapiens), P09467 (parent)
chain: MADQAPFDTDVNTLTRFVMEEGRKARGTGELTQLLNSLCTAVKAISSAVRKAGIAHLYGIAGSTNVTGDQVKKLDVLSNDLVMNMLKSSFATCVLVSEEDKHAIIVEPEKRGKYVVCFDPLDGSSNIDCLVSVGTIFGIYRKKSTDEPSEKDALQPGRNLVAAGYALYGSATMLVLAMDCGVNCFMLDPAIGEFILVDKDVKIKKKGKIYSLNEGYARDFDPAVTEYIQRKKFPPDNSAPYGARYVGSMVADVHRTLVYGGIFLYPANKKSPNGKLRLLYECNPMAYVMEKAGGMATTGKEAVLDVIPTDIHQRAPVILGSPDDVLEFLKVYEKHSAQ
partner: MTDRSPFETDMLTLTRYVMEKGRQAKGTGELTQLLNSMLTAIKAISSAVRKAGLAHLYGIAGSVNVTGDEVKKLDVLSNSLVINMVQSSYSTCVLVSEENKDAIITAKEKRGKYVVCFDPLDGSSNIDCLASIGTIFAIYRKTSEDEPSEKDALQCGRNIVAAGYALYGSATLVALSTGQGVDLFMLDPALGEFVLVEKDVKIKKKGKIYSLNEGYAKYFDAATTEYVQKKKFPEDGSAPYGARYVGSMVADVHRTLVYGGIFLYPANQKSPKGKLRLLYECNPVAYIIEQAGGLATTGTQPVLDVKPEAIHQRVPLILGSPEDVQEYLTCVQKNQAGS

Variants of: B1
Conditions: with acy3_human ACY3, Q96HD9

Row | Variant | effect of a mutation on the interaction
1 | M195R | disrupting interaction strength
2 | E285A | disrupting interaction strength

Variants of: B1
Conditions: with acy3_human ACY3, Q96HD9
Remark: another data set of the same source

Row | Variant | effect of a mutation on the interaction
3 | I143F | disrupting interaction strength

Variants of: B2
Conditions: with ikzf3_human IKZF3, Q9UKT9

Row | Variant | effect of a mutation on the interaction
4 | P77T | disrupting interaction strength
5 | R159W | with no effect
6 | R221H | disrupting interaction strength

Variants of: B2
Conditions: with kctd4_human KCTD4, Q8WVF5
Sequence of kctd4_human KCTD4, Q8WVF5 (Q8WVF5 whole entry): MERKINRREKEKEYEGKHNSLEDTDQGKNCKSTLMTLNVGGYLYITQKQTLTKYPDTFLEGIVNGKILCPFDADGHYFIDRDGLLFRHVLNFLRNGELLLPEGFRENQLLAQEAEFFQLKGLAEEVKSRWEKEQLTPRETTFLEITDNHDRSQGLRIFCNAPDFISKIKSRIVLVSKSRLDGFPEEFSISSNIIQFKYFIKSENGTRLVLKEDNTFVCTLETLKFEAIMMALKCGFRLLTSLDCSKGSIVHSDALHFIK

Row | Variant | effect of a mutation on the interaction
7 | P77T | disrupting interaction strength
8 | R159W | with no effect
9 | R221H | disrupting interaction strength

Variants of: B2
Conditions: with rim3a_human RIMBP3, Q9UFD9
Sequence of rim3a_human RIMBP3, Q9UFD9 (Q9UFD9 whole entry): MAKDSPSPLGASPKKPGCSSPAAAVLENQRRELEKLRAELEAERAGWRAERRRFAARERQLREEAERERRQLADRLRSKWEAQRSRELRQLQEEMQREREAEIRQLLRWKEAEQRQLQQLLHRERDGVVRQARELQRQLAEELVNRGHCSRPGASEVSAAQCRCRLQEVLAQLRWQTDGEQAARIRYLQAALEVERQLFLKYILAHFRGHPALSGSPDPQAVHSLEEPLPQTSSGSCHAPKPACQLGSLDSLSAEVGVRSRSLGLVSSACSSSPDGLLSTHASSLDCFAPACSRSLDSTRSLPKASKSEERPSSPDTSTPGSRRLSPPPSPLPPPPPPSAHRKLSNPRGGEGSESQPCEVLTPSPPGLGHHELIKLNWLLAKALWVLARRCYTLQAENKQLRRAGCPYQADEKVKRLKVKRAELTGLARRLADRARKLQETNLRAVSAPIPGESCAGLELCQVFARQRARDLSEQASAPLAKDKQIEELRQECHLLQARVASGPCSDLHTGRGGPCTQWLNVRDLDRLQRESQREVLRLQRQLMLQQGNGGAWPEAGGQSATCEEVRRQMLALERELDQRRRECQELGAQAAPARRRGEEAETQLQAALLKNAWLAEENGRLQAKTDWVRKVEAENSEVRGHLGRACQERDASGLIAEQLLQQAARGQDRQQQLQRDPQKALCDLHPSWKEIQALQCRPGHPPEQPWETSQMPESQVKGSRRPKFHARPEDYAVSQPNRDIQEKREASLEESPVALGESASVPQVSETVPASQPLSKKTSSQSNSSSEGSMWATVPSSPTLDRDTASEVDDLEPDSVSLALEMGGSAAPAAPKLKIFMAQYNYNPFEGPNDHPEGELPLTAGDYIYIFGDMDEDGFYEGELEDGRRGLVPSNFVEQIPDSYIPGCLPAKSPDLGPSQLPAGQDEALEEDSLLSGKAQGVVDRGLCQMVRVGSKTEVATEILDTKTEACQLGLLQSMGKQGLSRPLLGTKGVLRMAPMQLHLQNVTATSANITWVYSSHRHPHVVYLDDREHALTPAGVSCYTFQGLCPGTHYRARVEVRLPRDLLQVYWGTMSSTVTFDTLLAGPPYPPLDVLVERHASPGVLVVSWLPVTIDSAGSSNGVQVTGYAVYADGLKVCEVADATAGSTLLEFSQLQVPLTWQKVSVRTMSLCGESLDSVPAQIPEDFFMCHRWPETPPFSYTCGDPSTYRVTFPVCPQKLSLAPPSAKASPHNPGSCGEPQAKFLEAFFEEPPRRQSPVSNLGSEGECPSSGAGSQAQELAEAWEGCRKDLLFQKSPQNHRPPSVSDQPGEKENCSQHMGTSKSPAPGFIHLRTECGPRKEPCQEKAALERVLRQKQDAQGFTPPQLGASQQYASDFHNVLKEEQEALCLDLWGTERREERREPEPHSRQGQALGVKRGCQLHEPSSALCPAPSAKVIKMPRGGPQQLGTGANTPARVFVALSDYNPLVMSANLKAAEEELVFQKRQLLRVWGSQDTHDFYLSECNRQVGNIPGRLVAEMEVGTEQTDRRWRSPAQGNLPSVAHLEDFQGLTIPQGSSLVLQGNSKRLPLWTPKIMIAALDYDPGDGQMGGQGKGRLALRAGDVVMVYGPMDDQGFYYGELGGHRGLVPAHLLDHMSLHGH

Row | Variant | effect of a mutation on the interaction
10 | P77T | disrupting interaction strength
11 | R159W | with no effect
12 | R221H | disrupting interaction strength

Variants of: B2
Conditions: with trip6_human TRIP6, Q15654

Row | Variant | effect of a mutation on the interaction
13 | P77T | disrupting interaction strength
14 | R159W | with no effect
15 | R221H | disrupting interaction strength

Variants of: B2
Conditions: with KRT15, P19012

Row | Variant | effect of a mutation on the interaction
16 | P77T | disrupting interaction strength
17 | R159W | with no effect
18 | R221H | disrupting interaction strength

Variants of: B2
Conditions: with TCF4, P15884-3
Sequence of TCF4, P15884-3 (P15884 other isoform, or with tags, fused parts or gaps): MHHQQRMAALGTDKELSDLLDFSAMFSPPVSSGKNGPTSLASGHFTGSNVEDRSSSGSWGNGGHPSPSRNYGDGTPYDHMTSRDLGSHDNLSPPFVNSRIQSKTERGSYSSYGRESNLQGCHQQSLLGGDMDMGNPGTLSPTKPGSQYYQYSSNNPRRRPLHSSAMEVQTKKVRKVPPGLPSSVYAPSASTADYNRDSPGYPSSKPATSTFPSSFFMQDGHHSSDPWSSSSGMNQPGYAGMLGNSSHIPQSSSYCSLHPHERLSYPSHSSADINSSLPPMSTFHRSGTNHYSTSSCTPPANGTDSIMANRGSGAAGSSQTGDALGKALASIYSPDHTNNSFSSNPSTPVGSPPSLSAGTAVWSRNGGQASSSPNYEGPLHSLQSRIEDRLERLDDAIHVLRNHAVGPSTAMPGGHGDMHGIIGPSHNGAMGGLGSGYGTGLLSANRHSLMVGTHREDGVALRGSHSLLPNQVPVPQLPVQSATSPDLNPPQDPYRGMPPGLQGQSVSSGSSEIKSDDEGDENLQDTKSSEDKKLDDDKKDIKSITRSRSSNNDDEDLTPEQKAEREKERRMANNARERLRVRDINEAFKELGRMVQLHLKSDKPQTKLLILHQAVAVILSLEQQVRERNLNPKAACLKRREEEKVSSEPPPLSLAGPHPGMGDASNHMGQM

Row | Variant | effect of a mutation on the interaction
19 | P77T | disrupting interaction strength
20 | R159W | with no effect
21 | R221H | disrupting interaction strength

Variants of: B2
Conditions: with goga2_human GOLGA2, Q08379
Sequence of goga2_human GOLGA2, Q08379 (Q08379 whole entry): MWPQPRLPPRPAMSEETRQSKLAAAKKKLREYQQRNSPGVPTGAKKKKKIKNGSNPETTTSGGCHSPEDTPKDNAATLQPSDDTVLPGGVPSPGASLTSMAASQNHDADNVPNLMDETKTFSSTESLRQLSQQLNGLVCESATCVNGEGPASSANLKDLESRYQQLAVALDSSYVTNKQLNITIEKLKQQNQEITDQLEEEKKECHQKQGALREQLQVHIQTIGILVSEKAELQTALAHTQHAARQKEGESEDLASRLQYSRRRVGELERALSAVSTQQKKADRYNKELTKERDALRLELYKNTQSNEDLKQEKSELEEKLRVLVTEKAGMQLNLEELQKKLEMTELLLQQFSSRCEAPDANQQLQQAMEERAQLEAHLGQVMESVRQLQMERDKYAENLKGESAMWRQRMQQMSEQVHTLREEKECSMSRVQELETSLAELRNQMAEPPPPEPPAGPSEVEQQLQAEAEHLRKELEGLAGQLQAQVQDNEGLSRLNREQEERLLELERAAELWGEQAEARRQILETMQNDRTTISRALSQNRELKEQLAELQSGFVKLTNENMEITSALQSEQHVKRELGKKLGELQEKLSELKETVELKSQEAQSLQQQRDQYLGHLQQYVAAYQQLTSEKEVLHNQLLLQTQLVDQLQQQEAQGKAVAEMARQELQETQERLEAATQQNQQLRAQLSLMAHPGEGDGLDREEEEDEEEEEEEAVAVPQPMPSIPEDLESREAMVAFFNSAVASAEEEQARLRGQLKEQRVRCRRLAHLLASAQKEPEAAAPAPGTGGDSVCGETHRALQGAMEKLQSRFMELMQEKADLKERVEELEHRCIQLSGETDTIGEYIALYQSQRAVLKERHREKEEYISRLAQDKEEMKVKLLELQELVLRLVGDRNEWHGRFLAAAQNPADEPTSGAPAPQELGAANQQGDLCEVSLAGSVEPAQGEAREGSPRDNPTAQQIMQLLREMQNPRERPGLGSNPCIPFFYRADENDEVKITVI

Row | Variant | effect of a mutation on the interaction
22 | P77T | disrupting interaction strength
23 | R159W | with no effect
24 | R221H | disrupting interaction strength

Variants of: B3
Conditions: with ca050_human C1orf50, Q9BV19
Sequence of ca050_human C1orf50, Q9BV19 (Q9BV19 whole entry): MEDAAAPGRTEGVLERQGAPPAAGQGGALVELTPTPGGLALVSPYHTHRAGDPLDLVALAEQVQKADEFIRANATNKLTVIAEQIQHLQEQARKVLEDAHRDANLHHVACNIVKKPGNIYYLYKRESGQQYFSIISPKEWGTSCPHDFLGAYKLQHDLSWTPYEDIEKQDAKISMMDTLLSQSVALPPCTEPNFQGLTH

Row | Variant | effect of a mutation on the interaction
25 | A89V | with no effect
26 | Y143C | with no effect
27 | D86G | with no effect

Variants of: B3
Conditions: with ca050_human C1orf50, Q9BV19
Remark: another data set of the same source

Row | Variant | effect of a mutation on the interaction
28 | D86G | disrupting interaction strength

Variants of: B4
Conditions: with PDE9A

Row | Variant | effect of a mutation on the interaction
29 | R394H | disrupting interaction strength
30 | D487N | disrupting interaction strength
31 | P130S | with no effect

Variants of: B4
Conditions: with praf1_human RABAC1, Q9UI14

Row | Variant | effect of a mutation on the interaction
32 | R394H | disrupting interaction strength
33 | D487N | disrupting interaction strength
34 | P130S | with no effect

Variants of: B4
Conditions: with ABI2, Q9NYB9-2
Sequence of ABI2, Q9NYB9-2 (Q9NYB9 other isoform, or with tags, fused parts or gaps): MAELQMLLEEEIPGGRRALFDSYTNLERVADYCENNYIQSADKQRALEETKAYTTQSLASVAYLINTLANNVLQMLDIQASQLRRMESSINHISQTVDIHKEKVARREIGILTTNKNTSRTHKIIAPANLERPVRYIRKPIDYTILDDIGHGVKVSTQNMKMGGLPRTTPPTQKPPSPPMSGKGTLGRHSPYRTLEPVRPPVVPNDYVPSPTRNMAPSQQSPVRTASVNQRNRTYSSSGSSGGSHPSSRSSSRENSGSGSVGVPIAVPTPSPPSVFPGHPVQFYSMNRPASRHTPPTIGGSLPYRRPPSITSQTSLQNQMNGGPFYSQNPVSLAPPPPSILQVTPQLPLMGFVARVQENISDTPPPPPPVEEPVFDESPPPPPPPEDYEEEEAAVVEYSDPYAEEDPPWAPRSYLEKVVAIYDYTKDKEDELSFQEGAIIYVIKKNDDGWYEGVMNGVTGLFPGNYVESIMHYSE

Row | Variant | effect of a mutation on the interaction
35 | R394H | disrupting interaction strength
36 | D487N | disrupting interaction strength
37 | P130S | with no effect

Variants of: B4
Conditions: with PDE9A
Remark: another data set of the same source

Row | Variant | effect of a mutation on the interaction
38 | R394H | with no effect

Variants of: B5
Conditions: with keap1_human KEAP1, Q14145
Sequence of keap1_human KEAP1, Q14145 (Q14145 whole entry): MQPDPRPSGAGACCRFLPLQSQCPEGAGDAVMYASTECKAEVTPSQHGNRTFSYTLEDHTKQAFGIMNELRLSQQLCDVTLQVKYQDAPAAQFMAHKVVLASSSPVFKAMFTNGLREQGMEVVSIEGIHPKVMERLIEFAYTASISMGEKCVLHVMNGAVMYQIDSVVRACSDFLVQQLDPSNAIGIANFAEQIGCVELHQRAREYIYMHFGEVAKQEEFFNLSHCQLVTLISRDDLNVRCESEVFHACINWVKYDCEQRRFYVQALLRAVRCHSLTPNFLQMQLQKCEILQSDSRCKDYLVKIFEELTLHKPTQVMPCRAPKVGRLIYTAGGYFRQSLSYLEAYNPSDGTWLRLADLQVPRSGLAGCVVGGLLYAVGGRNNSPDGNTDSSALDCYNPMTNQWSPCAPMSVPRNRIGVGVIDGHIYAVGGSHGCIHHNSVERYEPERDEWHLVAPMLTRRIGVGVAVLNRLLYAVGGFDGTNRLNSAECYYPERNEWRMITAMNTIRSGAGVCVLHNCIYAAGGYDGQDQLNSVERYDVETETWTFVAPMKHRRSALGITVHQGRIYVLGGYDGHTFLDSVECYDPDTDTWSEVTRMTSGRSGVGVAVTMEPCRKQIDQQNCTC

Row | Variant | effect of a mutation on the interaction
39 | M195R | with no effect
40 | E24G | with no effect
41 | E285A | disrupting interaction strength

Variants of: B5
Conditions: with keap1_human KEAP1, Q14145
Remark: another data set of the same source

Row | Variant | effect of a mutation on the interaction
42 | M195R | causing an interaction
43 | E24G | causing an interaction
44 | E285A | causing an interaction

Variants of: B6
Conditions: with FBP2, O00757

Row | Variant | effect of a mutation on the interaction
45 | G164S | with no effect
46 | G260R | with no effect

Variants of: B6
Conditions: with FBP2, O00757
Remark: another data set of the same source

Row | Variant | effect of a mutation on the interaction
47 | G260R | disrupting interaction strength
48 | R218K | with no effect
